Measured values from patent publication US20050118638A1.
Where two headings read alike, the source gives them in different places.

Columns and labels:
[1] = molecular target: TSH receptor (detergent solubilised TSH receptor preparation) (UniProt P16473); experiment: TSHR coated tubes after serum G44
[2] = molecular target: TSH receptor (detergent solubilised TSH receptor preparation) (UniProt P16473); experiment: TSHR coated tubes after serum G43
[3] = molecular target: TSH receptor (detergent solubilised TSH receptor preparation) (UniProt P16473); experiment: TSHR coated tubes after serum G25
[4] = molecular target: TSH receptor (detergent solubilised TSH receptor preparation) (UniProt P16473); experiment: TSHR coated tubes after serum G31
[5] = molecular target: TSH receptor (detergent solubilised TSH receptor preparation) (UniProt P16473); experiment: TSHR coated tubes after serum G26
[6] = molecular target: TSH receptor (detergent solubilised TSH receptor preparation) (UniProt P16473); experiment: TSHR coated tubes after serum G51
[7] = molecular target: TSH receptor (detergent solubilised TSH receptor preparation) (UniProt P16473); experiment: TSHR coated tubes after serum G41
[8] = molecular target: TSH receptor (detergent solubilised TSH receptor preparation) (UniProt P16473); experiment: TSHR coated tubes after serum G47
[9] = molecular target: TSH receptor (detergent solubilised TSH receptor preparation) (UniProt P16473); experiment: TSHR coated tubes after serum G39
[10] = molecular target: TSH receptor (detergent solubilised TSH receptor preparation) (UniProt P16473); experiment: TSHR coated tubes after serum NSF 21
[11] = molecular target: TSH receptor (detergent solubilised TSH receptor preparation) (UniProt P16473); experiment: TSHR coated tubes after serum G45
[12] = molecular target: TSH receptor (detergent solubilised TSH receptor preparation) (UniProt P16473); experiment: TSHR coated tubes after serum G49
[13] = molecular target: TSH receptor (detergent solubilised TSH receptor preparation) (UniProt P16473); experiment: TSHR coated tubes after serum NSF 20
[14] = molecular target: TSH receptor (detergent solubilised TSH receptor preparation) (UniProt P16473); experiment: TSHR coated tubes after serum NSF 4
[15] = molecular target: TSH receptor (detergent solubilised TSH receptor preparation) (UniProt P16473); experiment: TSHR coated tubes after serum G32
[16] = molecular target: TSH receptor (detergent solubilised TSH receptor preparation) (UniProt P16473); experiment: TSHR coated tubes after serum G48
[17] = molecular target: TSH receptor (detergent solubilised TSH receptor preparation) (UniProt P16473); experiment: TSHR coated tubes after serum G30
[18] = molecular target: TSH receptor (detergent solubilised TSH receptor preparation) (UniProt P16473); experiment: TSHR coated tubes after serum G29
[19] = molecular target: TSH receptor (detergent solubilised TSH receptor preparation) (UniProt P16473); experiment: TSHR coated tubes after serum G36
[20] = molecular target: TSH receptor (detergent solubilised TSH receptor preparation) (UniProt P16473); experiment: TSHR coated tubes, healthy blood donor sera
[21] = molecular target: TSH receptor (detergent solubilised TSH receptor preparation) (UniProt P16473); experiment: TSHR coated tubes after serum NSF 26
[22] = molecular target: TSH receptor (detergent solubilised TSH receptor preparation) (UniProt P16473); experiment: TSHR coated tubes after serum G33
[23] = molecular target: TSH receptor (detergent solubilised TSH receptor preparation) (UniProt P16473); experiment: TSHR coated tubes after serum NSF 10
[24] = molecular target: TSH receptor (detergent solubilised TSH receptor preparation) (UniProt P16473); experiment: TSHR coated tubes after serum G46
[25] = molecular target: TSH receptor (detergent solubilised TSH receptor preparation) (UniProt P16473); experiment: TSHR coated tubes after serum NSF 5
[26] = molecular target: TSH receptor (detergent solubilised TSH receptor preparation) (UniProt P16473); experiment: TSHR coated tubes after serum NSF 16
[27] = molecular target: TSH receptor (detergent solubilised TSH receptor preparation) (UniProt P16473); experiment: TSHR coated tubes after serum G37
[28] = molecular target: TSH receptor (detergent solubilised TSH receptor preparation) (UniProt P16473); experiment: TSHR coated tubes after serum G40
[29] = molecular target: TSH receptor (detergent solubilised TSH receptor preparation) (UniProt P16473); experiment: TSHR coated tubes after serum NSF 17
[30] = molecular target: TSH receptor (detergent solubilised TSH receptor preparation) (UniProt P16473); experiment: TSHR coated tubes after serum NSF 18
[31] = molecular target: TSH receptor (detergent solubilised TSH receptor preparation) (UniProt P16473); experiment: TSHR coated tubes after serum G27
[32] = molecular target: TSH receptor (detergent solubilised TSH receptor preparation) (UniProt P16473); experiment: TSHR coated tubes after serum NSF 22
[33] = molecular target: TSH receptor (detergent solubilised TSH receptor preparation) (UniProt P16473); experiment: TSHR coated tubes after serum G35
[34] = molecular target: TSH receptor (detergent solubilised TSH receptor preparation) (UniProt P16473); experiment: TSHR coated tubes after serum G34
[35] = molecular target: TSH receptor (detergent solubilised TSH receptor preparation) (UniProt P16473); experiment: TSHR coated tubes after serum G38
[36] = molecular target: TSH receptor (detergent solubilised TSH receptor preparation) (UniProt P16473); experiment: TSHR coated tubes after serum G23
[37] = molecular target: TSH receptor (detergent solubilised TSH receptor preparation) (UniProt P16473); experiment: TSHR coated tubes after serum G28
[38] = molecular target: TSH receptor (detergent solubilised TSH receptor preparation) (UniProt P16473); experiment: 125I-TSHR immunoprecipitation; competitor TRAb of serum K3
[39] = molecular target: TSH receptor (detergent solubilised TSH receptor preparation) (UniProt P16473); experiment: TSHR coated tubes after serum G50
[40] = molecular target: TSH receptor (detergent solubilised TSH receptor preparation) (UniProt P16473); experiment: TSHR coated tubes after serum G24
[41] = molecular target: TSH receptor (detergent solubilised TSH receptor preparation) (UniProt P16473); experiment: TSHR coated tubes after serum G52
[42] = molecular target: TSH receptor (detergent solubilised TSH receptor preparation) (UniProt P16473); experiment: TSHR coated tubes, healthy blood donor sera; remark: listed apart in the source

TSH (thyrotrophin, thyroid stimulating hormone) (ligand), sequence (P01223 21-132): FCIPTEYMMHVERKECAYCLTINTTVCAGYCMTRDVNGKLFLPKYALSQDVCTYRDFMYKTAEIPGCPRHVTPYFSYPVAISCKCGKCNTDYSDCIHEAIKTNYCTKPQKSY
TSH receptor (detergent solubilised TSH receptor preparation), sequence (P16473 21-764 limits assumed): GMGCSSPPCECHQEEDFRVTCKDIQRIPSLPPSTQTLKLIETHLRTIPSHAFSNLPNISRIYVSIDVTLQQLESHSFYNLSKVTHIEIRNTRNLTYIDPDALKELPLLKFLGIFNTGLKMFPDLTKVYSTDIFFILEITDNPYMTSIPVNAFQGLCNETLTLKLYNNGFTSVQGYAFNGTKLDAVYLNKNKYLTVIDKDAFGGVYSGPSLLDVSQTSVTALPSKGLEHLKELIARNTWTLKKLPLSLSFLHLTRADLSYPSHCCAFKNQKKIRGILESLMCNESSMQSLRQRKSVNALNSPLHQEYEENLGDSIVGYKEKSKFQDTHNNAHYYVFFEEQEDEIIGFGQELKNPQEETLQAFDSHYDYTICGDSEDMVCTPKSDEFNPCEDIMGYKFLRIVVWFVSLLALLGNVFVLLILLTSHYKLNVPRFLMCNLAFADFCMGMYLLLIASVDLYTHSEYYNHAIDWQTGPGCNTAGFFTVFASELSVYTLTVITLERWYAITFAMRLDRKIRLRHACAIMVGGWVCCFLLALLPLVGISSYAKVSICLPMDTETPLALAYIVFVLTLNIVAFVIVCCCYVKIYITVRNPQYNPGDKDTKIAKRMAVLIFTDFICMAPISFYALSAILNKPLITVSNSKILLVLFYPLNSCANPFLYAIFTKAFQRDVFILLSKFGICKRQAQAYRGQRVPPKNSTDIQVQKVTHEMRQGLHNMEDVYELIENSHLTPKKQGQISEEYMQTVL

Substance: TSH (thyrotrophin, thyroid stimulating hormone) (ligand)
- % total counts bound (% total counts added) [1]: 12.4
- % total counts bound (% total counts added) [2]: 4
- % total counts bound (% total counts added) [3]: 7.2
- % total counts bound (% total counts added) [4]: 4.3
- % total counts bound (% total counts added) [5]: 2.6
- % total counts bound (% total counts added) [6]: 7.9
- % total counts bound (% total counts added) [7]: 10.8
- % total counts bound (% total counts added) [8]: 4.3
- % total counts bound (% total counts added) [9]: 7.9
- % total counts bound (% total counts added) [10]: 12.3
- % total counts bound (% total counts added) [11]: 3.5
- % total counts bound (% total counts added) [12]: 6.1
- % total counts bound (% total counts added) [13]: 12.3
- % total counts bound (% total counts added) [14]: 12.5
- % total counts bound (% total counts added) [15]: 7.5
- % total counts bound (% total counts added) [16]: 4.8
- % total counts bound (% total counts added) [17]: 5.3
- % total counts bound (% total counts added) [18]: 8
- % total counts bound (% total counts added) [19]: 10.1
- mean % total counts bound [20]: 12.2%
- % total counts bound (% total counts added) [21]: 12.8
- % total counts bound (% total counts added) [22]: 6.1
- % total counts bound (% total counts added) [23]: 12.5
- % total counts bound (% total counts added) [24]: 2.7
- % total counts bound (% total counts added) [25]: 12.3
- % total counts bound (% total counts added) [26]: 12
- % total counts bound (% total counts added) [27]: 9.3
- % total counts bound (% total counts added) [28]: 7.2
- % total counts bound (% total counts added) [29]: 11.5
- % total counts bound (% total counts added) [30]: 11.2
- % total counts bound (% total counts added) [31]: 7.3
- % total counts bound (% total counts added) [32]: 12.4
- % total counts bound (% total counts added) [33]: 4.3
- % total counts bound (% total counts added) [34]: 7.5
- % total counts bound (% total counts added) [35]: 10
- % total counts bound (% total counts added) [36]: 8.9
- % total counts bound (% total counts added) [37]: 3.8
- % inhibition of TRAb binding [38]: 55.4%
- % total counts bound (% total counts added) [39]: 6.3
- % total counts bound (% total counts added) [40]: 6.9
- % total counts bound (% total counts added) [41]: 7.4
- mean % total counts bound [42]: 12.1%
